The record followed here is paper PMC8115264, “Mitofusin-2 stabilizes adherens junctions and suppresses endothelial inflammation via modulation of β-catenin signaling” (Nature Communications, 2021).

The target in the experiment is T1, GFP-Mfn2 (UniProt O95140 1-757).
T1 construct: The construct was generated in the authors' laboratory; also called lentiviral GFP-Mfn2; GFP-tagged Mfn2; source: HLMVECs, lentiviral expression (pWPXL), in lysate
T1 sequence (looked up): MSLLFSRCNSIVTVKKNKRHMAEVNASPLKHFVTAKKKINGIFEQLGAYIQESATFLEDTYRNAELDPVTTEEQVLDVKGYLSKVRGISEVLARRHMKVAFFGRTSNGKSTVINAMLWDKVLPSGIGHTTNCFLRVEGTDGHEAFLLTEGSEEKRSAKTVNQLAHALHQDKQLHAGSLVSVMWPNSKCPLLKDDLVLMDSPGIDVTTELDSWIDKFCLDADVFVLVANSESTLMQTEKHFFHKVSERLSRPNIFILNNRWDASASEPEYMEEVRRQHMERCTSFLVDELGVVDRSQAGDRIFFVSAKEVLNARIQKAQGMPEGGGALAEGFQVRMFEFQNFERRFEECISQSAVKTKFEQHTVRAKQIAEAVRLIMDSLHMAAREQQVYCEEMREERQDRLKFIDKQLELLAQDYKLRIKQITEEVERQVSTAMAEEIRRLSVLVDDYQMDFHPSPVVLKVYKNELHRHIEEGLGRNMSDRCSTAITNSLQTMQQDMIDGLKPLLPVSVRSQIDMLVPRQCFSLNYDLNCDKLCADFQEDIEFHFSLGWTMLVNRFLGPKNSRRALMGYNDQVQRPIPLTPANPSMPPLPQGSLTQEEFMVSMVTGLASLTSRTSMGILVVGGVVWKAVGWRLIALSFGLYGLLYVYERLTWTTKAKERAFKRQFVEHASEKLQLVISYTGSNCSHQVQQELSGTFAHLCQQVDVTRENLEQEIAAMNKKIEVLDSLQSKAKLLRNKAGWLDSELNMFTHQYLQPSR
Description: co-IP; HLMVECs expressing GFP or GFP-Mfn2, with or without TNFα (10 ng/mL) for 6 h; GFP-Mfn2 immunoprecipitated with GFP-trap magnetic agarose, Western blot for β-catenin and Mfn2. The settings on record: partners not purified. On the technique in general: Immunoblotting shows a protein as a band on a membrane.

B1: β-catenin (natural protein, human (endogenous in HLMVECs), UniProt P35222 1-781, looked up)
chain: MATQADLMELDMAMEPDRKAAVSHWQQQSYLDSGIHSGATTTAPSLSGKGNPEEEDVDTSQVLYEWEQGFSQSFTQEQVADIDGQYAMTRAQRVRAAMFPETLDEGMQIPSTQFDAAHPTNVQRLAEPSQMLKHAVVNLINYQDDAELATRAIPELTKLLNDEDQVVVNKAAVMVHQLSKKEASRHAIMRSPQMVSAIVRTMQNTNDVETARCTAGTLHNLSHHREGLLAIFKSGGIPALVKMLGSPVDSVLFYAITTLHNLLLHQEGAKMAVRLAGGLQKMVALLNKTNVKFLAITTDCLQILAYGNQESKLIILASGGPQALVNIMRTYTYEKLLWTTSRVLKVLSVCSSNKPAIVEAGGMQALGLHLTDPSQRLVQNCLWTLRNLSDAATKQEGMEGLLGTLVQLLGSDDINVVTCAAGILSNLTCNNYKNKMMVCQVGGIEALVRTVLRAGDREDITEPAICALRHLTSRHQEAEMAQNAVRLHYGLPVVVKLLHPPSHWPLIKATVGLIRNLALCPANHAPLREQGAIPRLVQLLVRAHQDTQRRTSMGGTQQQFVEGVRMEEIVEGCTGALHILARDVHNRIVIRGLNTIPLFVQLLYSPIENIQRVAAGVLCELAQDKEAAEAIEAEGATAPLTELLHSRNEGVATYAAAVLFRMSEDKPQDYKKRLSVELTSSLFRTEPMAWNETADLGLDIGAQGEPLGYRQDDPSYRSFHSGGYGQDALGMDPMMEHEMGGHHPGADYPVDGLPDLGHAQDLMDGLPPGDSNQLAWFDTDL
notes: β-catenin, endogenous in human lung microvascular endothelial cells; also called beta-catenin; source: endogenous, HLMVEC lysate or fixed HLMVECs
Take B1: the “fold increase of the interaction after TNFα against basal” value was 6 fold.
